The labels stand for the following.
B1: MP4-9 (antibody, V domains shown)
VH: EVQLVESGGGLVQPGGSLRLSCAASGFTFSNYWMSWVRQAPGKGLEWVAAIKQDGSEKYYVDSVKGRFTISRDNAKNSLYLQMNSLRAEDTAVYYCARDYYDILTDYYIHYWYFDLWGRGTLVTVSS
VL: not shown
notes: Captured by anti-human Fc
B2: 887/772 (antibody, V domains shown)
VH: EVQLVESGGGLVQPGGSLRLSCAASGFTFSDYWMDWVRQAPGKGLEWVASIREDGSEKYYVDSVKGRFTISRDNAKNSLYLQMNSLRAEDTAVYYCARDYYDILTDYYIHYWYFDLWGRGTLVTVSS
VL: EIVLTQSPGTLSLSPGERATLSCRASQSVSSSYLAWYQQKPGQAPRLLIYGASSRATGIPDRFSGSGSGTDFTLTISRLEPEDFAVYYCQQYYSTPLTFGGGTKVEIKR
notes: Captured by anti-human Fc
B3: 847/772 (antibody, V domains shown)
VH: EVQLVESGGGLVQPGGSLRLSCAASGFTFSSHWMSWVRQAPGKGLEWVASIKEDGSEKYYVDSVKGRFTISRDNAKNSLYLQMNSLRAEDTAVYYCARDYYDILTDYYIHYWYFDLWGRGTLVTVSS
VL: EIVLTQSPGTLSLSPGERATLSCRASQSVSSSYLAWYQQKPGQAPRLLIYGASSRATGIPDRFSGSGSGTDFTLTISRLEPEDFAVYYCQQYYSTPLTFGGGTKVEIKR
notes: Captured by anti-human Fc
B4: 846/773 (antibody, V domains shown)
VH: EVQLVESGGGLVQPGGSLRLSCAASGFTFSNSWMTWVRQAPGKGLEWVASINHDGSEKHYVGSVKGRFTISRDNAKNSLYLQMNSLRVEDTAVYYCARDYYDILTDYYIHYWYFDLWGRGTLVTVSS
VL: not shown
notes: Captured by anti-human Fc
B5: 1139/773 (antibody, V domains shown)
VH: EVQLVESGGGLVQPGGSLRLSCAASGFTFSSHWMSWVRQTPGKGLEWVASIKEDGSEKYYVDSVKGRFTISRDNAKNSLYLQMNSLRAEDTAVYYCARDYYDILTDYYIHYWYFDLWGRGTLVTVSS
VL: not shown
notes: Captured by anti-human Fc
B6: 1134/773 (antibody, V domains shown)
VH: EVQLVESGGGLVQPGGSLRLSCAASGFTFSSYWMSWVRQTPGKGLEWVASIKQDGSEKYYVDSVKVRFTISRDNAKNSLYLQMNSLRAEDTAVYYCARDYYDILTDYYIHYWYFDLWGRGTLVTVSS
VL: not shown
notes: Captured by anti-human Fc
B7: 1102/773 (antibody, V domains shown)
VH: EVQLVESGGGLVQPGGSLRLSCAASGFTFSSYWMDWVRQAPGKGLEWVANIREDGSEKYYVDSVKGRFTISRDNAKNSLYLQMNSLRAEDTAVYYCARDYYDILTDYYIHYWYFDLWGRGTLVTVSS
VL: not shown
notes: Captured by anti-human Fc
B8: 1129/773 (antibody, V domains shown)
VH: EVQLVESGGGLVQPGGSLRLSCAASGFTFSSYWMSWVRQAPGKGLEWVANIKQDGSEKYYVDSVKVRFTISRDNAKNSLYLQMNSLRAEDTAVYYCARDYYDILTDYYIHYWYFDLWGRGTLVTVSS
VL: not shown
notes: Captured by anti-human Fc
B9: 1137/773 (antibody, V domains shown)
VH: EVQLVESGGGLVQPGGSLRLSCAASGFTFSSYWMSWVRQTPGKGLEWVANIKQDGSEKYYVDSVKGRFTISRDNAKNSLYLQMNSLRAEDTAVYYCARDYYDILTDYYIHYWYFDLWGRGTLVTVSS
VL: not shown
notes: Captured by anti-human Fc
B10: 1143/773 (antibody, V domains shown)
VH: EVQLVESGGGLVQPGGSLRLSCAASGFTFSNHWMNWVRQAPGKGLEWVAGIREDGSEKYYVDSVKGRFTISRDNAKNSLYLQMNSLRAEDTAVYYCARDYYDILTDYYIHYWYFDLWGRGTLVTVSS
VL: not shown
notes: Captured by anti-human Fc
B11: 1142/773 (antibody, V domains shown)
VH: EVQLVESGGGLVQPGGSLRLSCAASGFTFSDYWMDWVRQAPGKGLEWVASIREDGSEKYYVGSVKGRFTISRDNAKNSLYLQMNSLRVEDTAVYYCVRDYYDILTDYYIHYWYFDLWGRGTLVTVSS
VL: not shown
notes: Captured by anti-human Fc
B12: 878/772 (antibody, V domains shown)
VH: EVQLVESGGGLVQPGGSLRLSCAASGFTFSDYWMDWVRQAPGKGLEWVANIREDGSEKYYVDSVKGRFTISRDNAKNSLYLQMNSLRAEDTAVYYCARDYYDILTDYYIHYWYFDLWGRGTLVTVSS
VL: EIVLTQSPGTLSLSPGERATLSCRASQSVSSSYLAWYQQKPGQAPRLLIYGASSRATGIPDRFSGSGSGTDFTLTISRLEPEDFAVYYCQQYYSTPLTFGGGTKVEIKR
notes: Captured by anti-human Fc

This is an account of results in patent US20130202591A1 (ANAPTYSBIO, published 2013).

The experiment deals with T1, human IL-17 (human, UniProt Q16552 24-155).
T1 construct: also called hIL-17; IL-17A
T1 sequence (Q16552 24-155 limits assumed): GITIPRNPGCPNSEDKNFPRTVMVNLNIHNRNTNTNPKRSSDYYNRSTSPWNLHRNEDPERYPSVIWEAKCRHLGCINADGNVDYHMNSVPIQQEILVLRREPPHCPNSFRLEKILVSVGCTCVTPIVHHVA
The experiment is described as follows: SPR (BIACORE), antibody captured by anti-human Fc, antigen in flow; grade: ++ strong binding, + binding, +/- close to background.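 Further: antigen injected at two-fold dilutions from 50 nM over captured antibody at 30 µL/min, dissociation followed for 10 min, kinetics fitted with a 1:1 mass-transport model.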 A general note: Surface plasmon resonance follows binding to a sensor surface in real time, without labels.
Source text: BIACORE T100™ is used to determine antibody-antigen binding kinetics and affinity. The technology is based on surface plasmon resonance (SPR), an optical phenomenon that enables detection of label-free interactions in real time within a dextran biosensor matrix. It is therefore suited for measuring rate constants of association (kₒₙ) as well as dissociation (koff). All reagents and materials were purchased from GE Healthcare (Buckinghamshire, United Kingdom). […] 1×HBS-EP+ buffer (of 0.01M HEPES, 0.15M NaCl, 3 mM EDTA, 0.05% Polysorbate, pH 7.6) was used to reconstitute antigen at various concentrations (starting at 50 nM and using two-fold serial dilutions for each concentration). 210 μL of each antigen concentration was injected over captured antibody at a flow rate of 30 μL/min, then allowed to dissociate for 10 minutes. Surface was regenerated with 60 μL of 3M MgCl₂ after each cycle to establish baseline. Association and dissociation kinetic constants (kₐ and kd) were evaluated with “1:1 with mass transport” binding model in the BIACORE™ T100 Evaluation Software. The degree of binding for the BIACORE™ assay was measured as “++” (strong binding), “+” (binding), or “+/−” (close to background).
For the molecule B1, the binding result was “binds”.
In the case of B2 it was “binds”.
On to B3, for which the binding result is “binds”.
Take B4: the binding result is “binds”.
In the case of B5 it was “binds”; in that of B6, “binds”.
For B7 the value was “binds”; for B8, “binds”.
Regarding B9, the binding result is given as “binds”.
With B10, the binding result is given as “binds”.
With B11, the binding result is “binds”.
In the case of B12 it was “binds”.
